According to the Immune Epitope Database (IEDB):

What was measured:
HLA-A*30:01 = assay: IEDB peptide-MHC binding, purified MHC/competitive/radioactivity; filed as Kd, often an IC50 or EC50 that approximates it; ≥ and ≤ were set here for values at or beyond the usual limits of such assays
HLA-B*51:01 = assay: as above
HLA-A*68:02 = assay: as above
HLA-A*02:06 = assay: as above
HLA-B*57:01 = assay: IEDB peptide-MHC binding, purified MHC/direct/fluorescence; filed as Kd, often an IC50 or EC50 that approximates it; ≥ and ≤ were set here for values at or beyond the usual limits of such assays
HLA-B*58:01 = assay: as above
HLA-A*02:03 = assay: IEDB peptide-MHC binding, purified MHC/competitive/radioactivity; filed as Kd, often an IC50 or EC50 that approximates it; ≥ and ≤ were set here for values at or beyond the usual limits of such assays
HLA-A*02:02 = assay: as above
HLA-B*15:01 [1] = assay: as above; details: source organism: Vaccinia virus WR
HLA-A*32:01 = assay: as above
HLA-A*01:01 [2] = assay: as above
HLA-A*30:02 = assay: as above
HLA-A*26:01 = assay: as above
HLA-B*53:01 = assay: as above; details: source organism: Dengue virus 1 Brazil/97-11/1997
HLA-A*29:02 = assay: as above; details: source organism: Mammarenavirus brazilense
HLA-A*31:01 = assay: IEDB peptide-MHC binding, purified MHC/direct/fluorescence; filed as Kd, often an IC50 or EC50 that approximates it; ≥ and ≤ were set here for values at or beyond the usual limits of such assays; details: source organism: SARS-CoV1
HLA-A*02:01 = assay: as above; details: source organism: SARS-CoV1
HLA-A*01:01 [3] = assay: as above; details: source organism: SARS-CoV1
HLA-B*15:01 [4] = assay: as above; details: source organism: SARS-CoV1
HLA-A*03:01 = assay: as above; details: source organism: SARS-CoV1
HLA-B*08:01 = assay: as above; details: source organism: SARS-CoV1
HLA-B*07:02 = assay: as above; details: source organism: SARS-CoV1
HLA-A*69:01 = assay: as above; details: source organism: SARS-CoV1
[5] = source organism: Vaccinia virus WR
[6] = source organism: Dengue virus 3 Martinique/1243/1999
[7] = source organism: Brucella abortus 2308
[8] = source organism: Lymphocytic choriomeningitis virus (strain Armstrong) (clone 53b)
[9] = source organism: Dengue virus 2 Jamaica/1409/1983
[10] = source organism: Dengue virus 4 Philippines/H241/1956
[11] = source organism: Dengue virus 1 Brazil/97-11/1997
[12] = source organism: Dengue virus 4 Dominica/814669/1981
[13] = source organism: Trypanosoma cruzi
[14] = source organism: Mammarenavirus brazilense
[15] = source organism: Dengue virus 2 Peru/IQT2913/1996
[16] = source organism: SARS coronavirus Tor2

AVSFSSPIS was tested, and the Kd (HLA-A*30:01; [5]) was 1310 nM.

FTMTHRRPTI gave a Kd (HLA-B*51:01; [6]) of at least 20400 nM, a Kd (HLA-A*68:02; [6]) of 114 nM and a Kd (HLA-A*02:06; [6]) of 647 nM.

VARGARFFL was tested, and the Kd (HLA-B*57:01; [7]) was 509 nM and the Kd (HLA-B*58:01; [7]) was at least 20000 nM.

Work on KLEGDSTDL yielded a Kd (HLA-A*68:02; source organism: Homo sapiens) of 2050 nM.

Work on RTKPASAPI yielded a Kd (HLA-A*30:01; [5]) of 0.114 nM.

SLNQTVHSL showed a Kd (HLA-A*68:02; [8]) of 16100 nM, a Kd (HLA-A*02:06; [8]) of at least 28100 nM and a Kd (HLA-A*02:03; [8]) of 2.4 nM. The Kd (HLA-A*02:02; [8]) was 1.9 nM.

For TTTESRCPTQ, the Kd (HLA-A*30:01; [9]) was at least 28700 nM.

In the case of LTISFFLIM, the Kd (HLA-B*15:01 [1]) is reported as 7690 nM and the Kd (HLA-A*32:01; [5]) is reported as 11.6 µM.

For KTKTDFGFY, the Kd (HLA-A*01:01 [2]; [10]) was 6.28 µM, the Kd (HLA-A*30:02; [10]) was 1.56 nM and the Kd (HLA-A*30:01; [10]) was 2.89 nM.

Work on KVVRVQRPAK yielded a Kd (HLA-A*30:01; [11]) of 6.11 nM.

In the case of YSKLTSMHF, the Kd (HLA-B*15:01 [1]) is reported as 0.574 nM.

LLEGEEERL gave a Kd (HLA-A*68:02; source organism: Homo sapiens) of at least 136000 nM and a Kd (HLA-A*02:06; source organism: Homo sapiens) of at least 20500 nM.

LMNNLDTLF showed a Kd (HLA-B*15:01 [1]) of 86.4 nM.

NARLMRALK showed a Kd (HLA-A*30:01; [5]) of 2.22 nM.

In the case of EVLTLATGPI, the Kd (HLA-A*26:01; [12]) is reported as 10400 nM and the Kd (HLA-A*68:02; [12]) is reported as 100 nM.

MENVYISSY showed a Kd (HLA-B*15:01 [1]) of 1.97 nM.

MTAGIFLFFM showed a Kd (HLA-A*26:01; [10]) of 15.9 nM and a Kd (HLA-A*68:02; [10]) of 10.4 nM.

With RQLQKIERW the Kd (HLA-B*57:01; source organism: Yellow fever virus) was 405 nM.

EPEVANLDI was tested, and the Kd (HLA-B*51:01; [11]) was at least 44500 nM and the Kd (HLA-B*53:01) was 7.23 µM.

TVFFVLMML was tested, and the Kd (HLA-A*68:02; [10]) was 36 nM.

ETYQLWTALI showed a Kd (HLA-A*26:01; [6]) of 114 nM and a Kd (HLA-A*68:02; [6]) of 2.28 nM.

LACYRFVKF was tested, and the Kd (HLA-B*15:01 [1]) was 146 nM.

LAGVSLLPV was tested, and the Kd (HLA-B*51:01; [6]) was 1910 nM.

RTRYDTFKV showed a Kd (HLA-A*30:01; [5]) of 0.197 nM.

With AVKDVTITK the Kd (HLA-A*30:01; [5]) was 2.16 nM.

Sequence VSRLEHQMW has a Kd (HLA-B*57:01; source organism: West Nile virus) of 90.5 nM.

Work on GLLPSLLLLL yielded a Kd (HLA-A*68:02; [13]) of at least 33000 nM, a Kd (HLA-A*02:06; [13]) of 7.28 nM and a Kd (HLA-A*02:03; [13]) of 1.83 nM. It also gave a Kd (HLA-A*02:02; [13]) of 3.06 nM.

CARISSRES was tested, and the Kd (HLA-A*30:01; source organism: Vaccinia virus Copenhagen) was 586 nM.

With YNISRKIVY the Kd (HLA-A*26:01; [14]) was 2890 nM, the Kd (HLA-A*01:01 [2]; [14]) was 1.08 µM and the Kd (HLA-A*30:02; [14]) was 3410 nM. The Kd (HLA-A*30:01; [14]) was 6600 nM, the Kd (HLA-A*32:01; [14]) was at least 36.2 µM and the Kd (HLA-A*29:02) was 2350 nM.

For WPLSKMDIGV, the Kd (HLA-B*51:01; [15]) was 2670 nM.

With SSVNVSLTAI the Kd (HLA-A*68:02; [9]) was 184 nM.

KNRLNALGK was tested, and the Kd (HLA-A*30:01; [15]) was 142 nM.

In the case of LSIFFIVVA, the Kd (HLA-B*15:01 [1]) is reported as 82.3 nM.

Sequence KSKQLKSFL has a Kd (HLA-A*30:01; [5]) of 13.2 nM.

With NMIKMFSQI the Kd (HLA-B*15:01 [1]) was 354 nM.

Sequence FVNYNFTLV has a Kd (HLA-A*68:02; [13]) of 0.336 nM, a Kd (HLA-A*02:06; [13]) of 0.0031 nM and a Kd (HLA-A*02:03; [13]) of 0.759 nM. The Kd (HLA-A*02:02; [13]) was 10.4 nM.

VLWAHGFEL was tested, and the Kd (HLA-A*31:01) was 305 nM, the Kd (HLA-A*02:01) was 72.4 nM and the Kd (HLA-A*01:01 [3]) was 4.7 µM. It also gave a Kd (HLA-B*15:01 [4]) of 617 nM, a Kd (HLA-A*03:01) of 2330 nM and a Kd (HLA-B*58:01; source organism: SARS-CoV1) of 1860 nM. The Kd (HLA-B*08:01) was 3.2 µM, the Kd (HLA-B*07:02) was 6.18 µM and the Kd (HLA-A*69:01) was 65.5 nM. It also gave a Kd (HLA-A*02:06; [16]) of 20.3 nM, a Kd (HLA-A*02:03; [16]) of 33.8 nM and a Kd (HLA-A*02:02; [16]) of 2.4 nM.
